Measurements from patent US20230192861A1 (ABL BIO, published 2023).

T1: human B7-H3 expressed on the surface of human cancer cell lines (human, UniProt Q5ZPR3 29-534)
T1 construct: whole, on cells; also called cell surface expression B7-H3
T1 sequence (looked up): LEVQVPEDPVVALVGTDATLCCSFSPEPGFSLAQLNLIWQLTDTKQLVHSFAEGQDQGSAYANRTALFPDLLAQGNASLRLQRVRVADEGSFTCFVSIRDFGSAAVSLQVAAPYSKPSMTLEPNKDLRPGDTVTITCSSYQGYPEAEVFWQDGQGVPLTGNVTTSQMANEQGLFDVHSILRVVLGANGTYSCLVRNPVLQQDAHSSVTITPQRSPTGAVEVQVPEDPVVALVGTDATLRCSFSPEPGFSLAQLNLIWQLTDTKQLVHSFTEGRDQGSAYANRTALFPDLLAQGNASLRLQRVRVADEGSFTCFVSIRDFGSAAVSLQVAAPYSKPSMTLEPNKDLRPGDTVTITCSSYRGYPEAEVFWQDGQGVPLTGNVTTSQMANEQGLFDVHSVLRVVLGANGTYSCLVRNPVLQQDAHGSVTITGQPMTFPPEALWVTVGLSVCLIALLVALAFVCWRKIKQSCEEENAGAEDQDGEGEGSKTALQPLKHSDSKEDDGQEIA


Experiments:
[1] = target: T1, human B7-H3 expressed on the surface of …; test: FACS on RKO cells (express both B7-H3 and PD-L1), FITC anti-human IgG; the signal is not split between the two targets
[2] = target: T2, PD-L1 expressed on RKO cells (human, UniProt Q9NZQ7 19-290); test: as above
T2 construct: whole, on cells; RKO cells carry both PD-L1 and B7-H3; also called PD-L1 expressed on cell surface
T2 sequence (Q9NZQ7 19-290): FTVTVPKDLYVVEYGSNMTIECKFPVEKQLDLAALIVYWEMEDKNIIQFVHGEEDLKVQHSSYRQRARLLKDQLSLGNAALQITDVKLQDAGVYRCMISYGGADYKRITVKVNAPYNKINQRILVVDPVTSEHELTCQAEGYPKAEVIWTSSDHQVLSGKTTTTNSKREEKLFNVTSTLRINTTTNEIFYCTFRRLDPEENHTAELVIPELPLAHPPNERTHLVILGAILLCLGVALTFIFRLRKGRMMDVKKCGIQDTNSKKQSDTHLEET

[3] = target: T1, human B7-H3 expressed on the surface of …; test: FACS on RKO cells
Description: (§1) To evaluate the antigen binding property, 1+1 format bispecific antibodies were analyzed for its binding to mammalian expressed both B7-H3 and PD-L1 by FACS as compared to monospecific antibodies. Briefly, RKO cells (human colon carcinoma cell line) were incubated with antibodies. After wash by FACS buffer (1% BSA in PBS), the FITC-anti-human IgG antibody was added to each well and incubated at 4° C. for 1 hour. The MFI of FITC was evaluated by FACS Caliber. The results are described in FIG. 18.

[4] = target: T2, PD-L1 expressed on RKO cells; test: FACS on RKO cells
Description: as §1

[5] = target: PD-L1 (Biacore, Example 1.6) (UniProt Q9NZQ7 19-238, limits assumed); test: Biacore
PD-L1 (Biacore, Example 1.6), sequence (Q9NZQ7 19-238 limits assumed): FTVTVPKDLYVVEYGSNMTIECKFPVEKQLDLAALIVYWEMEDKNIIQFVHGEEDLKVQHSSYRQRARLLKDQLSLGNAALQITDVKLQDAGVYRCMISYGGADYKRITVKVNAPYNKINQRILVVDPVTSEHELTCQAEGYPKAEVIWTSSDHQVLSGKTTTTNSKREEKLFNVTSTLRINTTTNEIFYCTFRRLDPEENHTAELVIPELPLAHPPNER

[6] = target: T2, PD-L1 expressed on RKO cells; test: FACS on RKO cells (express both B7-H3 and PD-L1), FITC anti-human IgG
[7] = target: T2, PD-L1 expressed on RKO cells; test: as above; remark: listed apart in the source

Binder | EC50 (read off the curve) [1] [nM] | EC50 (read off the curve) [2] [nM] | Kd [5] [nM] | koff [5] [s⁻¹] | kon [5] [M⁻¹ s⁻¹] | other results
B6xC4I(2+2) (bispecific antibody, human IgG1, kappa, N297A, not the 1+1 format B6xC4I; also called ABLPNB.04; B6xC4I (2+2 format)) chain 1: not shown chain 2: DIQMTQSPSSLSASVGDRVTITCKASQDVTPAVAWYQQKPGKAPKLLIYSTSSRYTGVPSRFSGSGSGTDFTFTISSLQPEDIATYYCQQHYTTPLTFGQGTKLEIKRTVAAPSVFIFPPSDEQLKSGTASVVCLLNNFYPREAKVQWKVDNALQSGNSQESVTEQDSKDSTYSLSSTLTLSKADYEKHKVYACEVTHQGLSSPVTKSFNRGEC | ~1 | ~1 | – | – | – | –
B6xB5(2+2) (bispecific antibody, human IgG1, kappa, N297A, also called ABLPNB.03; B6xB5 (2+2 format)) chain 1: not shown chain 2: DIQMTQSPSSLSASVGDRVTITCKASQDVTPAVAWYQQKPGKAPKLLIYSTSSRYTGVPSRFSGSGSGTDFTFTISSLQPEDIATYYCQQHYTTPLTFGQGTKLEIKRTVAAPSVFIFPPSDEQLKSGTASVVCLLNNFYPREAKVQWKVDNALQSGNSQESVTEQDSKDSTYSLSSTLTLSKADYEKHKVYACEVTHQGLSSPVTKSFNRGEC | ~1 | ~1 | – | – | – | –
ABLPNB.09: bispecific antibody comprising the anti-PD-L1 B6 clone in (HC + LC) form and the anti-B7-H3 C4I clone in scFab-Fc form (bispecific antibody, human IgG1, kappa, lambda, Human IgG1, knobs-into-hole; also called B6xC4I (1+1 format)) heavy: not shown light: DIQMTQSPSSLSASVGDRVTITCKASQDVTPAVAWYQQKPGKAPKLLIYSTSSRYTGVPSRFSGSGSGTDFTFTISSLQPEDIATYYCQQHYTTPLTFGQGTKLEIKRTVAAPSVFIFPPSDEQLKSGTASVVCLLNNFYPREAKVQWKVDNALQSGNSQESVTEQDSKDSTYSLSSTLTLSKADYEKHKVYACEVTHQGLSSPVTKSFNRGEC not shown | – | – | – | – | – | binding result [3]: binds; binding result [4]: binds
H12 (antibody, V domains shown, Humanized anti-PD-L1 antibody; also called WT (H12); WT) VH: EVQLVESGGGLVQPGGSLRLSCAASGFTFSSYDMSWVRQAPGKSLEWVATISDAGGYIYYSDSVKGRFTISRDNAKNSLYLQMNSLRDEDTAVYICAREFGKRYALDYWGQGTTVTVSS VL: DIQMTQSPSSLSASVGDRVTITCKASQDVTPAVAWYQQKPGKAPKLLIYSTSSRYTGVPSRFSGSGSGTDFTFTISSLQPEDIATYYCQQHYTTPLTFGQGTKLEIK | – | – | 6.12 | 0.000436 | 71200 | –
B6 (anti-PD-L1) (antibody, V domains shown, Engineered anti-PD-L1 clone) VH: EVQLVESGGGLVQPGGSLRLSCAASGFTFSSYDMSWVRQAPGKSLEWVATISDAGGYIYYRDSVKGRFTISRDNAKNSLYLQMNSLRDEDTAVYICARELPWRYALDYWGQGTTVTVSS VL: DIQMTQSPSSLSASVGDRVTITCKASQDVTPAVAWYQQKPGKAPKLLIYSTSSRYTGVPSRFSGSGSGTDFTFTISSLQPEDIATYYCQQHYTTPLTFGQGTKLEIK | – | – | 4.25 | 0.000418 | 98300 | EC50 (read off the curve) [6]: ~1 nM; EC50 (read off the curve) [7]: ~0.2 nM
